Target: Human erythropoietin (Epoetin β) (human) (UniProt P01588)
Assay: SPR; EPO immobilised by amine coupling on a ProteOn GLH chip (up to 3 000 RU); S100 or CaM as analyte (0.25–4 μM); 25 °C; 10 mM HEPES, 150 mM NaCl, 0.05% TWEEN 20, pH 7.4, 1 mM CaCl2; heterogeneous ligand model, values averaged over analyte concentrations (n = 5)

Kd1 (heterogeneous ligand model, ligand population L1): 540 nM
Kd2 (heterogeneous ligand model, ligand population L2): 1.8 µM
ka1 (heterogeneous ligand model, ligand population L1): 2000 M⁻¹ s⁻¹
ka2 (heterogeneous ligand model, ligand population L2): 16000 M⁻¹ s⁻¹
kd1 (heterogeneous ligand model, ligand population L1): 0.0011 s⁻¹
kd2 (heterogeneous ligand model, ligand population L2): 0.028 s⁻¹
B1: Human S100P protein (wild-type) (natural protein)
chain: MTELETAMGMIIDVFSRYSGSEGSTQTLTKGELKVLMEKELPGFLQSGKDKDAVDKLLKDLDANGDAQVDFSEFIVFVAAITSACHKYFEKAGL

Reference: paper PMC8773746
